Results published in patent WO2018224439A1 (dated 2018).

Experiments:
human serum albumin [1] = target: T1, human serum albumin (human, UniProt P02768 25-609); assay: SPR; sc02 against sc01; this end fits human SA pH 5.5 in Table 3
T1 construct: Coupled by amine chemistry to the SPR chip; also called HSA; human SA

cynomolgus serum albumin = target: T2, cynomolgus serum albumin (cynomolgus, UniProt A2V9Z4 25-608); assay: SPR; sc02 against sc01; this end fits cynomolgus SA pH 5.5 in Table 3
T2 construct: also called cynomolgus SA

human serum albumin [2] = target: T1, human serum albumin; assay: SPR; sc02 against sc01

Row | fold improvement of affinity (STR graft over CDR graft) (human serum albumin [1]) [fold] | fold improvement of affinity (STR graft over CDR graft) (cynomolgus serum albumin) [fold] | fold improvement of affinity (STR graft over CDR graft) (human serum albumin [2]) [fold] | Binder
1 | 20 to 300 | 20 to 300 |  | 19-01-H04-sc02 (scFv, V domains shown, Humanized scFv (STR graft); also called 19-01-H04-sc02 STR; 19-01-H04-SC02 STR) VH: EVQLVESGGGLVQPGGSLRLSCAASGFSLSSNAMGWVRQAPGKGLEYIGIISVGGFTYYASWAKGRFTISRDNSKNTVYLQMNSLRAEDTATYFCARDRHGGDSSGAFYLWGQGTLVTVSS VL: DIQMTQSPSSLSASVGDRVTITCQSSESVYSNNQLSWYQQKPGQPPKLLIYDASDLASGVPSRFSGSGSGTDFTLTISSLQPEDFATYYCAGGFSSSSDTAFGGGTKLTVLG
2 |  |  | ~3 | 23-13-A01-sc02 (scFv, V domains shown, Humanized scFv (STR graft); also called 23-13-A01-sc02 STR; 23-13-A01-SC02 STR) VH: EVQLVESGGGLVQPGGSLRLSCAASGFSFSSSYWICWVRQAPGKGLEWVGCVFTGDGTTYYASWAKGRFTISRDNSKNTVYLQMNSLRAEDTATYFCARPVSVYYYGMDLWGQGTLVTVSS VL: DVVMTQSPSSLSASVGDRVTITCQASQIISSRSAWYQQKPGQPPKLLIYQASKLASGVPSRFSGSGSGTDFTLTISSLQPEDFATYYCQCTYIDSNFGAFGGGTKLTVLG
